Experimental data from patent US20180100026A1.
Where “and” joins values, the source holds several entries; their conditions need not be identical. Identical values can stand only once.

How the values were obtained:
Assay in all cases: cell-based or functional assay
[1] = biological target: CD33 on MOLM14 cells (human) (UniProt P20138)
[2] = biological target: CD19 on NALM-6 (CD19+) cells (human) (UniProt P15391)
[3] = biological target: anti-FITC CAR (FITC-E2 scFv, CD8 hinge and transmembrane region, 41BB and CD3 zeta) on human T cells
anti-FITC CAR (FITC-E2 scFv, CD8 hinge and transmembrane region, 41BB and CD3 zeta) on human T cells, sequence (chain, as listed by the source limits assumed): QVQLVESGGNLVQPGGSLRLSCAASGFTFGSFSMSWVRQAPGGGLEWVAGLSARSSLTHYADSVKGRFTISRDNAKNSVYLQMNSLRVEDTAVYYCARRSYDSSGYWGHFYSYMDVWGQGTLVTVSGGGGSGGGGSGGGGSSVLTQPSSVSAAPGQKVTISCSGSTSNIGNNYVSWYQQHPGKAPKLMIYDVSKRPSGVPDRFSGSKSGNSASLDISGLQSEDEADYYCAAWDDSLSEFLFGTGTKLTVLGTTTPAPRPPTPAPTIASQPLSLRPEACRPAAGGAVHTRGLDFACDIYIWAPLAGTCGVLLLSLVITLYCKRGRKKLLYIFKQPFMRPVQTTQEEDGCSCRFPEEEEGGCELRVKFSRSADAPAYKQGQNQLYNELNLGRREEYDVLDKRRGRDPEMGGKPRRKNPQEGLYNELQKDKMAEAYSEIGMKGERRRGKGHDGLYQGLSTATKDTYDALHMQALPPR

CD19 on NALM-6 (CD19+) cells (human), sequence (P15391 20-556): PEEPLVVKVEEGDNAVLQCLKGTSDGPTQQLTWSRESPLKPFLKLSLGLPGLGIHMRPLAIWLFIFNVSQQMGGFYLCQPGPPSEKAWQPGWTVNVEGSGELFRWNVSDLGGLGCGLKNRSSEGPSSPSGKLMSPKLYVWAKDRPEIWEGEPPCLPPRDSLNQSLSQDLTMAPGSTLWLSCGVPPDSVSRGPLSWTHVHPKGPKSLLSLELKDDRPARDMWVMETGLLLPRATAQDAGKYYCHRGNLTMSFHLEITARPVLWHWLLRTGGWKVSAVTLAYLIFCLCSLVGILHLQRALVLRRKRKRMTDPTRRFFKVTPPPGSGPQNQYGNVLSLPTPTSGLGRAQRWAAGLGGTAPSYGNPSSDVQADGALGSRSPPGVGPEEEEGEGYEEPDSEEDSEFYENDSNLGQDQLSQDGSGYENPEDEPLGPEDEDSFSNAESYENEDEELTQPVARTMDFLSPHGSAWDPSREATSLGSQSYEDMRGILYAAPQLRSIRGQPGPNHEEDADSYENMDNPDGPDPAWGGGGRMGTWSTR
CD33 on MOLM14 cells (human), sequence (P20138 18-364): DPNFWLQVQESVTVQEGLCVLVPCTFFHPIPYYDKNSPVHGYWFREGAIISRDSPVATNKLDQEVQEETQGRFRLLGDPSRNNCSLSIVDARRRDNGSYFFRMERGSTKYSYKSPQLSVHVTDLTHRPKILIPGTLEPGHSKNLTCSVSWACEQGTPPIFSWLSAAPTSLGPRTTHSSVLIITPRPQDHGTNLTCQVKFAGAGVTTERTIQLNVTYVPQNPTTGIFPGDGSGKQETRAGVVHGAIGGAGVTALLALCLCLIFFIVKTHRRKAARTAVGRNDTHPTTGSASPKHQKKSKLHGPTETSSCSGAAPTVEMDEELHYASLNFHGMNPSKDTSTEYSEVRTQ

“anti-CD33 hM195 CD-FITC switch (light chain T113 and heavy chain A117) (Fab)” showed an EC50 of cytotoxicity of anti-FITC CAR-T cells against MOLM14 cells [1] of 0.0185 nM.
In the case of isotype control (Millipore) (antibody), the % cytotoxicity, anti-FITC CAR-T + NALM-6 + 10 pM AB-FITC, with 0 pM isotype (IgG) [2] is reported as 54.6% and 51.4%, the % cytotoxicity, anti-FITC CAR-T + NALM-6 + 10 pM AB-FITC, with 1 pM isotype (IgG) [2] is reported as 48.3% and 48.2% and the % cytotoxicity, anti-FITC CAR-T + NALM-6 + 10 pM AB-FITC, with 10 pM isotype (IgG) [2] is reported as 49.6% and 49.9%. For the same substance, the % cytotoxicity, anti-FITC CAR-T + NALM-6 + 10 pM AB-FITC, with 100 pM isotype (IgG) [2] was 50% and 44.7%, the % cytotoxicity, anti-FITC CAR-T + NALM-6 + 10 pM AB-FITC, with 1000 pM isotype (IgG) [2] was 45.7% and 41.6% and the % cytotoxicity, anti-FITC CAR-T + NALM-6 + 10 pM AB-FITC, with 10000 pM isotype (IgG) [2] was 44.4% and 43%.
With “non-conjugated anti-CD19 Fab (clone FMC63)” the % cytotoxicity at 0.0001 pM; anti-FITC CAR-T; FIG. 72A [3] was 1.78%, the % cytotoxicity at 0.0001 pM; anti-FITC CAR-T; FIG. 72C [3] was 1.12% and the % cytotoxicity at 0.001 pM; anti-FITC CAR-T; FIG. 72A [3] was 0.731%. It also gave a % cytotoxicity at 0.001 pM; anti-FITC CAR-T; FIG. 72B [3] of 2.73%, a % cytotoxicity at 0.001 pM; anti-FITC CAR-T; FIG. 72C [3] of 5.24% and a % cytotoxicity at 0.01 pM; anti-FITC CAR-T; FIG. 72A [3] of 8.15%. It also gave a % cytotoxicity at 0.01 pM; anti-FITC CAR-T; FIG. 72B [3] of 2.04%, a % cytotoxicity at 0.1 pM; anti-FITC CAR-T; FIG. 72A [3] of 1.96% and a % cytotoxicity at 0.1 pM; anti-FITC CAR-T; FIG. 72C [3] of 2.66%. For the same substance, the % cytotoxicity at 1 pM; anti-FITC CAR-T; FIG. 72A [3] was 4.93%, the % cytotoxicity at 1 pM; anti-FITC CAR-T; FIG. 72B [3] was 3.84% and the % cytotoxicity at 1 pM; anti-FITC CAR-T; FIG. 72C [3] was 1.99%. For the same substance, the % cytotoxicity at 10 pM; anti-FITC CAR-T; FIG. 72A [3] was 3.73% and 2.56%, the % cytotoxicity at 10 pM; anti-FITC CAR-T; FIG. 72B [3] was 4.56% and 2.09% and the % cytotoxicity at 10 pM; anti-FITC CAR-T; FIG. 72C [3] was 1.85% and 9.94%. For the same substance, the % cytotoxicity at 100 pM; anti-FITC CAR-T; FIG. 72A [3] was 4.61% and 8.92%, the % cytotoxicity at 100 pM; anti-FITC CAR-T; FIG. 72B [3] was 3.24% and 1.4% and the % cytotoxicity at 100 pM; anti-FITC CAR-T; FIG. 72C [3] was 4.45% and 12.1%. The % cytotoxicity at 1000 pM; anti-FITC CAR-T; FIG. 72B [3] was 10.5% and 2.6%, the % cytotoxicity at 1000 pM; anti-FITC CAR-T; FIG. 72C [3] was 2.18% and 5.61% and the % cytotoxicity at 10000 pM; anti-FITC CAR-T; FIG. 72A [3] was 11.7% and 1.87%. For the same substance, the % cytotoxicity at 10000 pM; anti-FITC CAR-T; FIG. 72B [3] was 2.58% and the % cytotoxicity at 10000 pM; anti-FITC CAR-T; FIG. 72C [3] was 1.37% and 1.83%.
